Test results as given in the nanobody polyreactivity screen of Harvey et al. (2022).

Test: yeast display, Sf9 membrane polyspecificity reagent, FACS + sequencing; frameworks hold sequencing errors
How it was run: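 A nanobody's polyreactivity label depends on the gate it was sorted from. Yeast display cells were stained with 10% biotinylated, detergent-solubilized Sf9 membrane reagent for 1 hour at 4 °C, enriched on streptavidin microbeads and sorted by FACS. The low and high (top ~1%) gates were set on anti-HA fluorescence for expression and streptavidin fluorescence for reagent binding.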

| Sequence | polyreactivity (PSR sort gate) |
| --- | --- |
| QVQLVESGGGLVQAGGSLRLSCAASGSIFNVYAMGWYRQAPGKERELVAAISDGDGSTFYADSVKGRFTISRDNAKNTVYLQMNSLKPEDTAVYYCAKDYRWDSKFDYWGQGTQVTVSS | low polyreactivity |
| QVQLVESGGGLVQAGGSLRLSCAASGSIFNVYAMGWYRQAPGKERELVAAISDGDGSTFYADSVKGRFTISRDNAKTTVYLQMNSLKPEDTAVYYCAKDYRWDRKFDYWGQGTQVTVSS | low polyreactivity |
| QVQLVESGGGLVQAGGSLRLSCAASGSIFNVYGMGWYRQAPGKERELVAAISKSGTSTSYADSVKGRFTISRDNAKNTVYLQMNSLKPEDTAVYYRNAGYRTWWGKKYDYWGQGTQVTVSS | low polyreactivity |
| QVQLVESGGGLVQAGGSLRLSCAASGSIFNWNAMGWYRQAPGKERDLVATITITTSTNYADSVKGRFTISRDNAKNSVYLQMNCLKPEDNGVYYCNAGDPYRYLDDYNYWGQGTKVTVSS | low polyreactivity |
| QVQLVESGGGLVQAGGSLRLSCAASGSIFNWYTMGWYRQAPGKERELVAVITQSGGSTYYADSVKGRFTISRDNAKNTVYLQMNSLKPEDTAVYYCAKRYWSYQYGYRMYYWGQGTQVTVSS | high polyreactivity |
| QVQLVESGGGLVQAGGSLRLSCAASGSIFNYNAMGWYREAPRKERELVAAITWRGGTTSYADSVKGRFSISRDNAKNTVYLQMNSLKPEDTAVYYCNAYQWRHRYTMYYWGQGTQVTVSS | high polyreactivity |
| QVQLVESGGGLVQAGGSLRLSCAASGSIFNYNMGWYRQAPGKERELVAAVSTNYADSVKGRFTISRDNAKNTVYLQMNSLKPEDPAGYYCGVTPEKSGDQYDYWGPGTQVTVSS | low polyreactivity |
| QVQLVESGGGLVQAGGSLRLSCAASGSIFNYYAMGRYRQAPGKERELVAAIETTGGSTYYADSVKGRFTISRDNAKNTVYLQMNSLKPEDTAVYYCAATWAKPWYYEYDYWGQGTQVTVSS | low polyreactivity |
| QVQLVESGGGLVQAGGSLRLSCAASGSIFNYYAMGWYRQAPGKEREFVAGITTSGGSTYYADSVKGRFTISRDNAKNTVCLQMNSLKPEDTAVYYCAAYDYISSTYFLDDYWGQGTQVTVSS | low polyreactivity |
| QVQLVESGGGLVQAGGSLRLSCAASGSIFNYYAMGWYRQAPGKERELVAAIRSTGSTNYADSVKGRFTISRDNAKNTVYLQMNSLKPEDTAVYYCATDVSDWLYFAEHYYWGQGTQVTVSS | low polyreactivity |
| QVQLVESGGGLVQAGGSLRLSCAASGSIFNYYAMGWYRQAPGKERELVAGITTSGGSTYYADSVKGRFTISRDNAKNTVYFQMHSLKPEDTAVYYGAAYDYISSTYFLDDYWGQGTQVTVSS | low polyreactivity |
| QVQLVESGGGLVQAGGSLRLSCAASGSIFNYYAMGWYRQAPGKERELVATISSGGNTKYADSVKGRFTISRDNAKNTVYLQMNSLKPEDTAVYYCAARWQHSGYRDRYWYDYWGQGTQVTVSS | low polyreactivity |
| QVQLVESGGGLVQAGGSLRLSCAASGSIFNYYAMGWYRQAPGKERELVATITRGGSTYYADSVKGRFTISRDNAKNTVYLQMNRLKPEDTAVYYCAKVGRSTAYQNGYDYWGQGTQVTVSS | low polyreactivity |
| QVQLVESGGGLVQAGGSLRLSCAASGSIFNYYAMGWYRQAPGKVRELVATISSGGNTKFADSVKGRFTISRDNAKNTVYLQMKSLKPEDTAVYFCGARWQHSGYRDRYCYDYWGQGTQVTVSS | low polyreactivity |
| QVQLVESGGGLVQAGGSLRLSCAASGSIFNYYAMGWYRQEPGKERELVAAISSGGSTYYADSVKGRFTISRDNAKNTVYLQMNSLKPEDTAVYYCAVDSPYLDEYDYWGQGTQVTVSS | high polyreactivity |
| QVQLVESGGGLVQAGGSLRLSCAASGSIFNYYTMGWYRQAPGKERELVAAISWSGGSTYYADSVKGRFTISRDNAKNTVYLQMNSLKPEDTAVYYCAAVVRYSQAGYYYWGQGTQVTVSS | high polyreactivity |
| QVQLVESGGGLVQAGGSLRLSCAASGSIFPFYAMGWYRQAPGKERELVAAISWSVGNTYYADSVKGRFTISRDNAKNTVYLQMNRLKPEDTAVYYCAARQDPPLGYDYWGQGTQVTVSS | low polyreactivity |
